From patent US20100069462A1 (JICHI MEDICAL UNIVERSITY, published 2010)

Target: T1, PHB2-FLAG (human PHB2 protein with a FLAG tag fused to the carboxyl terminus) (human, UniProt O35129 1-299 (mouse entry))
T1 construct: Expressed in HeLa cells; immunoprecipitated with an anti-FLAG antibody from purified mitochondrial fractions; also called prohibitin 2; not shown: FLAG tag at the C-terminus
Assay: immunoprecipitation and mass spectrometry on purified HeLa mitochondrial fractions (summary of Example 3)
Description: First, immunoprecipitation (IP) analysis and mass spectrometry (MASS analysis) were conducted using purified mitochondrial fractions derived from HeLa cells expressing PHB2-FLAG, which had been prepared in Example 1.
In IP analysis, an immunoprecipitation method was performed using an anti-FLAG antibody, the precipitates were subjected to 12% SDS-PAGE, protein staining was performed, and then proteins that had been co-precipitated with the PHB2-FLAG protein were detected.

T1 sequence (O35129 whole entry, the tested form may be a part): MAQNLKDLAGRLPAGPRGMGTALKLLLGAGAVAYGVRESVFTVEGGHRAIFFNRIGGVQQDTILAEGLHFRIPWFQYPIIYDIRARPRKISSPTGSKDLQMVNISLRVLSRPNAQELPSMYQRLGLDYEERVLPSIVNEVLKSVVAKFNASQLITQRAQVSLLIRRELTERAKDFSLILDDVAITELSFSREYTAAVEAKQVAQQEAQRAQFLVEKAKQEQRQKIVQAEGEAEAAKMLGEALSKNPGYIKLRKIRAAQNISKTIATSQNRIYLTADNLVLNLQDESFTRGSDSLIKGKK

binding result: binds
B1: PHB1 protein (other, human, UniProt P35232 2-272, looked up)
chain: AAKVFESIGKFGLALAVAGGVVNSALYNVDAGHRAVIFDRFRGVQDIVVGEGTHFLIPWVQKPIIFDCRSRPRNVPVITGSKDLQNVNITLRILFRPVASQLPRIFTSIGEDYDERVLPSITTEILKSVVARFDAGELITQRELVSRQVSDDLTERAATFGLILDDVSLTHLTFGKEFTEAVEAKQVAQQEAERARFVVEKAEQQKKAAIISAEGDSKAAELIANSLATAGDGLIELRKLEAAEDIAYQLSRSRNITYLPAGQSVLLQLPQ
notes: Endogenous protein co-precipitated from HeLa mitochondrial fractions; also called prohibitin
